Assay results as given in IntAct's records for PubMed 11864996.

B1: Forkhead box protein O3 (Homo sapiens), O43524 (parent)
chain: MAEAPASPAPLSPLEVELDPEFEPQSRPRSCTWPLQRPELQASPAKPSGETAADSMIPEEEDDEDDEDGGGRAGSAMAIGGGGGSGTLGSGLLLEDSARVLAPGGQDPGSGPATAAGGLSGGTQALLQPQQPLPPPQPGAAGGSGQPRKCSSRRNAWGNLSYADLITRAIESSPDKRLTLSQIYEWMVRCVPYFKDKGDSNSSAGWKNSIRHNLSLHSRFMRVQNEGTGKSSWWIINPDGGKSGKAPRRRAVSMDNSNKYTKSRGRAAKKKAALQTAPESADDSPSQLSKWPGSPTSRSSDELDAWTDFRSRTNSNASTVSGRLSPIMASTELDEVQDDDAPLSPMLYSSSASLSPSVSKPCTVELPRLTDMAGTMNLNDGLTENLMDDLLDNITLPPSQPSPTGGLMQRSSSFPYTTKGSGLGSPTSSFNSTVFGPSSLNSLRQSPMQTIQENKPATFSSMSHYGNQTLQDLLTSDSLSHSDVMMTQSDPLMSQASTAVSAQNSRRNVMLRNDPMMSFAAQPNQGSLVNQNLLHHQHQTQGALGGSRALSNSVSNMGLSESSSLGSAKHQQQSPVSQSMQTLSDSLSGSSLYSTSANLPVMGHEKFPSDLDLDMFNGSLECDMESIIRSELMDADGLDFNFDSLISTQNVVGLNVGNFTGAKQASSQSWVPG

Variants of: B1
Conditions: with 1433z_human YWHAZ

effect of a mutation on the interaction | Variant
disrupting interaction | T32A;S253A;S315A
